In publication PMC11546298:

Molecular target: eYFP-MotD (P. aeruginosa)
Experiment: FRET or BRET

Substance “eCFP-MotY (from UniProt A0A0H2ZD91 1-321) (natural protein)” has an FRET efficiency (E) of 1.54%.
